We go through four molecules from PMC11329725 (Nature Communications, 2024).

Data set [1] deals with BRCA2 DBD;DSS1 R57Q (partner of DBD) (mouse;human?, UniProt P97929;P60896 2378-3115;1-70, |R57Q). In words: EMSA. On the technique in general: Mobility shift assays separate free from complexed probe on a gel.
Data set [2] has as its target BRCA2 DBD;DSS1(1-54) (partner of DBD) (mouse;human?, UniProt P97929;P60896 2378-3115;1-54, |del55-70). Kind of data set: EMSA.
In data set [3] the target is T1, BRCA2 DBD (mouse, UniProt P97929 2378-3115).
T1 sequence: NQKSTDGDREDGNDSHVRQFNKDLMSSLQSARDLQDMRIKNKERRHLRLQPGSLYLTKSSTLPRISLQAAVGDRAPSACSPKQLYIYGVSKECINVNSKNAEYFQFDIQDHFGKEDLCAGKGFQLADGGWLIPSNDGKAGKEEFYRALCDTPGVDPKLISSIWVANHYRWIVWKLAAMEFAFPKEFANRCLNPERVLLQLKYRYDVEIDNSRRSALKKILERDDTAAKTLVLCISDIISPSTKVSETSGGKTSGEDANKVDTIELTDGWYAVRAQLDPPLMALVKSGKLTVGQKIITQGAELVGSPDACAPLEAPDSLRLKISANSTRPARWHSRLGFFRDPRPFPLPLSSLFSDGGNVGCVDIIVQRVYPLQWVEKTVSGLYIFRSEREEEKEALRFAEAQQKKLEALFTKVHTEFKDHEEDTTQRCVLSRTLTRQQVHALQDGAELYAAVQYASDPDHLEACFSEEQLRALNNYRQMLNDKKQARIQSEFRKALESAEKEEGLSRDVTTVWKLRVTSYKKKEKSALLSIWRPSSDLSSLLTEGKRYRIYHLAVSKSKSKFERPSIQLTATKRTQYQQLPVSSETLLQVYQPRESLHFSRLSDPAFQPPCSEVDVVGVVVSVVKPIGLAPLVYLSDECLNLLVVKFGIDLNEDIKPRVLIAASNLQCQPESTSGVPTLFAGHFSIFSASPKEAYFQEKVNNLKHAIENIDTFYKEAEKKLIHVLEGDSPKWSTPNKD
In words: EMSA.

Data set [4] concerns the target BRCA2 DBD;DSS1(1-36) (partner of DBD) (mouse;human?, UniProt P97929;P60896 2378-3115;1-36, |del37-70). In words: EMSA.
The target of data set [5] is T2, OB23 (OB2-OB3 with tower) (human, UniProt P51587 2808-3192).
T2 sequence: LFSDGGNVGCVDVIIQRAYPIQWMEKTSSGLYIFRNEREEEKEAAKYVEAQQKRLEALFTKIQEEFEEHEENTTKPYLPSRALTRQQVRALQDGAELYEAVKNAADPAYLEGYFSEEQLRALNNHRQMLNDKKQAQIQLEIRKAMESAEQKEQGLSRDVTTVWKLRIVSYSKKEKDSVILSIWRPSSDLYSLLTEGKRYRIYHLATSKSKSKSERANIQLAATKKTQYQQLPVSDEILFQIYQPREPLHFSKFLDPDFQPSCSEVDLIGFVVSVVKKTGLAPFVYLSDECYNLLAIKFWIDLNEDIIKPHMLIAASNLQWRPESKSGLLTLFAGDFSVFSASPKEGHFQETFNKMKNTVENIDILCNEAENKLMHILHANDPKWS
In words: EMSA.

In data set [6] the target is T3, His6-HDOB1 (human BRCA2 helical domain and OB fold 1, residues 2479-2807) (human, UniProt P51587 2479-2807).
T3 sequence: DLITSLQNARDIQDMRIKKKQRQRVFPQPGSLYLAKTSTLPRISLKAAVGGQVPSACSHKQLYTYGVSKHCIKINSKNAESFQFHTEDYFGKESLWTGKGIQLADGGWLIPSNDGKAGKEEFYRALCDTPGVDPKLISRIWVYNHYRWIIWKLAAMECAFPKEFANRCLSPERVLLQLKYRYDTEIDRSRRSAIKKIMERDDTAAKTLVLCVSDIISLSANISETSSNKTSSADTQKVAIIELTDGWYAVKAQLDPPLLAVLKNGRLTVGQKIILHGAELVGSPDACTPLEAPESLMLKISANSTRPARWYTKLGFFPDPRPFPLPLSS
In words: co-purification.

By Kd is commonly meant the concentration at which binding is half-saturated. Read a low Kd as a tighter complex.

B1: Cy5 80-mer ssDNA (oligo 1) (ssDNA)
DNA: TTATATCCTTTACTTTGAATTCTATGTTTAACCTTTTACTTATTTTGTATTAGCCGGACCTTATTTCAATTATGTTCAT
For B1, the binding result in data set [1], in data set [2], in data set [3] and in data set [4] was “binds” in each case. In data set [5], this molecule gave a Kd of 0.27 µM.

B2: Cy5 80-bp dsDNA (oligo 1/oligo 2) (dsDNA)
DNA 1: B1 DNA
DNA 2: ATGAACATAATTGAAATAAGGATCCGGCTAATACAAAATAAGTAAAAGGTTAAACATAGAATTCAAAGTAAAGGATATAA
In the case of B2, the binding result in data set [1], in data set [2], in data set [3] and in data set [4] was “binds” throughout.

B3: GST-DSS1 1-54, co-expressed with His6-HDOB1 in E. coli (domain or fragment)
chain: MSEKKQPVDLGLLEEDDEFEEFPAEDWAGLDEDEDAHVWEDNWDDDNVEDDFSN
As for B3, the binding result in data set [6] is “binds”.

B4: GST-DSS1 1-45, co-expressed with His6-HDOB1 in E. coli (domain or fragment)
chain: MSEKKQPVDLGLLEEDDEFEEFPAEDWAGLDEDEDAHVWEDNWDD
In the case of B4, in data set [6], the binding result is “binds”.
